According to US20240124560A1:

Legend:
Test in all cases: cell-based or functional assay
[1] = biological target: HIV-1 Env of NIH-008_WEAU.d15.410.787 (HIV-1)
[2] = biological target: HIV-1 Env of pseudovirus NAC_JRCSF (HIV-1) (UniProt P20871)
[3] = biological target: HIV-1 Env of NIH-063_0330.v4.c3 (HIV-1)
[4] = biological target: HIV-1 Env of pseudovirus NAC_WITO.33 (HIV-1)
[5] = biological target: HIV-1 Env of NIH-039_Ce2060 G9 (HIV-1)
[6] = biological target: HIV-1 Env of pseudovirus NIH-085_X2088 c9 (clade G) (HIV-1)
[7] = biological target: HIV-1 Env of pseudovirus NIH-047_Ce704809221 1B3 (HIV-1)
[8] = biological target: HIV-1 Env of pseudovirus NIH-001_6535.3 (HIV-1)
[9] = biological target: HIV-1 Env of pseudovirus NIH-072_R3265.c06 (HIV-1)
[10] = biological target: HIV-1 Env of pseudovirus NIH-098_89.F1 2 25 (clade CD) (HIV-1)
[11] = biological target: HIV-1 Env of pseudovirus NIH-025_ZM109F.PB4 (HIV-1)
[12] = biological target: HIV-1 Env of NAC_DH12 (HIV-1)
[13] = biological target: HIV-1 Env of NIH-072_R3265.c06 (HIV-1)
[14] = biological target: HIV-1 Env of pseudovirus NIH-013_6240.08.TA5.4622 (HIV-1)
[15] = biological target: HIV-1 Env of NIH-020_ZM197M.PB7 (HIV-1)
[16] = biological target: HIV-1 Env of pseudovirus NIH-049_CNE20 (HIV-1)
[17] = biological target: HIV-1 Env of pseudovirus NIH-054_CNE53 (HIV-1)
[18] = biological target: HIV-1 Env of pseudovirus NAC_HxB2 (HIV-1) (UniProt P04578)
[19] = biological target: HIV-1 Env of NIH-017_Du156.12 (HIV-1)
[20] = biological target: HIV-1 Env of pseudovirus NAC_DH12 (HIV-1)
[21] = biological target: HIV-1 Env of pseudovirus NIH-040_Ce703010054 2A2 (HIV-1)
[22] = biological target: HIV-1 Env of pseudovirus NIH-060_Q769ENVd22 (HIV-1)
[23] = biological target: HIV-1 Env of pseudovirus NIH-075_CNE8 (HIV-1)
[24] = biological target: HIV-1 Env of pseudovirus NIH-095_6480.v4.c25 (HIV-1)
[25] = biological target: HIV-1 Env of pseudovirus NIH-116_T263.8 (HIV-1)
[26] = biological target: HIV-1 Env of pseudovirus NIH-027_CAP45.G3 (HIV-1)
[27] = biological target: HIV-1 Env of pseudovirus NIH-012_1012.11.TC21.3257 (HIV-1)
[28] = biological target: HIV-1 Env of NIH-007_CAAN5342.A2 (HIV-1)
[29] = biological target: HIV-1 Env of pseudovirus NIH-035_Ce1176 A3 (HIV-1)
[30] = biological target: HIV-1 Env of pseudovirus NAC_REJO.67 (HIV-1)
[31] = biological target: HIV-1 Env of pseudovirus NIH-021_ZM214M.PL15 (HIV-1)
[32] = biological target: HIV-1 Env of pseudovirus NAC_92TH021 (HIV-1)
[33] = biological target: HIV-1 Env of pseudovirus NIH-006_AC10.0.29 (HIV-1)
[34] = biological target: HIV-1 Env of pseudovirus NAC_BaL.26 (HIV-1)
[35] = biological target: HIV-1 Env of pseudovirus NIH-066_191084 B7.19 (HIV-1)
[36] = biological target: HIV-1 Env of pseudovirus NIH-022_ZM233M.PB6 (HIV-1)
[37] = biological target: HIV-1 Env of pseudovirus NIH-114_T257.31 (HIV-1)
[38] = biological target: HIV-1 Env of pseudovirus NAC_89.6 (HIV-1)
[39] = biological target: HIV-1 Env of pseudovirus NIH-009_1006.11.C3.1601 (HIV-1)
[40] = biological target: HIV-1 Env of pseudovirus NIH-063_0330.v4.c3 (HIV-1)
[41] = biological target: HIV-1 Env of NIH-056_Q168ENVa2 (HIV-1)
[42] = biological target: HIV-1 Env of NIH-025_ZM109F.PB4 (HIV-1)
[43] = biological target: HIV-1 Env of pseudovirus NIH-100_6041.v3.c23 (HIV-1)
[44] = biological target: HIV-1 Env of pseudovirus NIH-026_ZM135M.PL10a (HIV-1)
[45] = biological target: HIV-1 Env of NIH-052_CNE30 (HIV-1)

PGZL1 (antibody), sequence (V domain): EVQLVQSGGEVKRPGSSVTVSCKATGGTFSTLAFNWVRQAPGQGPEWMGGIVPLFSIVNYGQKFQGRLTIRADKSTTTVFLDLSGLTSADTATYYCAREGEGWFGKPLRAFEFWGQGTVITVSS
PGZL1 (antibody), sequence (VL): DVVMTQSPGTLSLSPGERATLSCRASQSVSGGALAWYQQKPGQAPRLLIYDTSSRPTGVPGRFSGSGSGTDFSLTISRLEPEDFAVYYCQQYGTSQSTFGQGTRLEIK

## VRC01 (antibody)
[1]
  IC80 neutralization: 0.306 µg/mL
[2]
  neutralization IC50: 0.172 µg/mL
[3]
  IC80 neutralization: 0.13 µg/mL
[4]
  neutralization IC50: 0.055 µg/mL
[5]
  IC80 neutralization: 0.45 µg/mL
[6]
  IC50 (µg/ml), TZM-bl cell neutralization assay, pseudovirus: > 50 µg/mL
[7]
  neutralization IC50: 0.32 µg/mL
[8]
  neutralization IC50: 0.946 µg/mL
[9]
  neutralization IC50: 0.126 µg/mL
[10]
  IC50 (µg/ml), TZM-bl cell neutralization assay, pseudovirus: > 50 µg/mL
[11]
  neutralization IC50: 0.074 µg/mL
[12]
  IC80 neutralization: 0.898 µg/mL
[13]
  IC80 neutralization: 0.502 µg/mL
[14]
  neutralization IC50: 0.604 µg/mL
[15]
  IC80 neutralization: 0.682 µg/mL
[16]
  neutralization IC50: 4.85 µg/mL
[17]
  neutralization IC50: 0.042 µg/mL
[18]
  neutralization IC50: 0.022 µg/mL
[19]
  IC80 neutralization: 0.23 µg/mL
[20]
  neutralization IC50: 0.227 µg/mL
[21]
  neutralization IC50: 0.139 µg/mL
[22]
  neutralization IC50: 0.025 µg/mL
[23]
  neutralization IC50: 0.126 µg/mL
[24]
  neutralization IC50: 0.014 µg/mL
[25]
  neutralization IC50: 0.124 µg/mL
[26]
  neutralization IC50: 1.92 µg/mL
[27]
  neutralization IC50: 0.081 µg/mL
[28]
  IC80 neutralization: 2.79 µg/mL
[29]
  neutralization IC50: 1.25 µg/mL
[30]
  neutralization IC50: 0.106 µg/mL
[31]
  neutralization IC50: 0.612 µg/mL
[32]
  neutralization IC50: 0.324 µg/mL
[33]
  neutralization IC50: 0.867 µg/mL
[34]
  neutralization IC50: 0.01 µg/mL
[35]
  neutralization IC50: 0.049 µg/mL
[36]
  neutralization IC50: 1.41 µg/mL
[37]
  neutralization IC50: 1.61 µg/mL
[38]
  neutralization IC50: 0.807 µg/mL
[39]
  neutralization IC50: 0.145 µg/mL
[40]
  neutralization IC50: 0.033 µg/mL
[41]
  IC80 neutralization: 0.218 µg/mL
[42]
  IC80 neutralization: 0.296 µg/mL
[43]
  neutralization IC50: 0.023 µg/mL
[44]
  neutralization IC50: 0.102 µg/mL
[45]
  IC80 neutralization: 2.38 µg/mL

## PGZL1 (antibody)
[1]
  IC80 neutralization: 39.6 µg/mL
[2]
  neutralization IC50: 13.4 µg/mL
[3]
  IC80 neutralization: > 50 µg/mL
[4]
  neutralization IC50: 3.56 µg/mL
[5]
  IC80 neutralization: > 50 µg/mL
[6]
  IC50 (µg/ml), TZM-bl cell neutralization assay, pseudovirus: > 50 µg/mL
[7]
  neutralization IC50: 0.738 µg/mL
[8]
  neutralization IC50: 1.42 µg/mL
[9]
  neutralization IC50: 28 µg/mL
[10]
  IC50 (µg/ml), TZM-bl cell neutralization assay, pseudovirus: > 50 µg/mL
[11]
  neutralization IC50: 7.36 µg/mL
[12]
  IC80 neutralization: 19 µg/mL
[13]
  IC80 neutralization: > 50 µg/mL
[14]
  neutralization IC50: 35.8 µg/mL
[15]
  IC80 neutralization: 7.66 µg/mL
[16]
  neutralization IC50: 2.42 µg/mL
[17]
  neutralization IC50: 6 µg/mL
[18]
  neutralization IC50: 0.121 µg/mL
[19]
  IC80 neutralization: 2.5 µg/mL
[20]
  neutralization IC50: 4.71 µg/mL
[21]
  neutralization IC50: 48.9 µg/mL
[22]
  neutralization IC50: 20.2 µg/mL
[23]
  neutralization IC50: 0.247 µg/mL
[24]
  neutralization IC50: 15 µg/mL
[25]
  neutralization IC50: 2.02 µg/mL
[26]
  neutralization IC50: 18.3 µg/mL
[27]
  neutralization IC50: 13.3 µg/mL
[28]
  IC80 neutralization: > 50 µg/mL
[29]
  neutralization IC50: 31.7 µg/mL
[30]
  neutralization IC50: 10.7 µg/mL
[31]
  neutralization IC50: 28.7 µg/mL
[32]
  neutralization IC50: 2.12 µg/mL
[33]
  neutralization IC50: 4.64 µg/mL
[34]
  neutralization IC50: > 50 µg/mL
[35]
  neutralization IC50: 30.9 µg/mL
[36]
  neutralization IC50: 5.9 µg/mL
[37]
  neutralization IC50: 29.6 µg/mL
[38]
  neutralization IC50: 25.3 µg/mL
[39]
  neutralization IC50: 24.6 µg/mL
[40]
  neutralization IC50: 22.1 µg/mL
[41]
  IC80 neutralization: > 50 µg/mL
[42]
  IC80 neutralization: 29.7 µg/mL
[43]
  neutralization IC50: > 50 µg/mL
[44]
  neutralization IC50: 0.296 µg/mL
[45]
  IC80 neutralization: > 50 µg/mL

## 4E10 (antibody)
[1]
  IC80 neutralization: 2.59 µg/mL
[2]
  neutralization IC50: 0.823 µg/mL
[3]
  IC80 neutralization: 4.17 µg/mL
[4]
  neutralization IC50: 0.435 µg/mL
[5]
  IC80 neutralization: 5.1 µg/mL
[6]
  IC50 (µg/ml), TZM-bl cell neutralization assay, pseudovirus: > 50 µg/mL
[7]
  neutralization IC50: 0.134 µg/mL
[8]
  neutralization IC50: 0.519 µg/mL
[9]
  neutralization IC50: 0.491 µg/mL
[10]
  IC50 (µg/ml), TZM-bl cell neutralization assay, pseudovirus: 5.11 µg/mL
[11]
  neutralization IC50: 0.703 µg/mL
[12]
  IC80 neutralization: 4.89 µg/mL
[13]
  IC80 neutralization: 2 µg/mL
[14]
  neutralization IC50: 9.78 µg/mL
[15]
  IC80 neutralization: 1.08 µg/mL
[16]
  neutralization IC50: 0.383 µg/mL
[17]
  neutralization IC50: 0.38 µg/mL
[18]
  neutralization IC50: 0.021 µg/mL
[19]
  IC80 neutralization: 0.447 µg/mL
[20]
  neutralization IC50: 1.17 µg/mL
[21]
  neutralization IC50: 2.05 µg/mL
[22]
  neutralization IC50: 1.61 µg/mL
[23]
  neutralization IC50: 0.087 µg/mL
[24]
  neutralization IC50: 0.561 µg/mL
[25]
  neutralization IC50: 0.206 µg/mL
[26]
  neutralization IC50: 0.886 µg/mL
[27]
  neutralization IC50: 2.06 µg/mL
[28]
  IC80 neutralization: 12.1 µg/mL
[29]
  neutralization IC50: 1.74 µg/mL
[30]
  neutralization IC50: 1.87 µg/mL
[31]
  neutralization IC50: 5.31 µg/mL
[32]
  neutralization IC50: 0.348 µg/mL
[33]
  neutralization IC50: 0.666 µg/mL
[34]
  neutralization IC50: 4.2 µg/mL
[35]
  neutralization IC50: 1.23 µg/mL
[36]
  neutralization IC50: 1.05 µg/mL
[37]
  neutralization IC50: 1.03 µg/mL
[38]
  neutralization IC50: 2.77 µg/mL
[39]
  neutralization IC50: 5.66 µg/mL
[40]
  neutralization IC50: 0.963 µg/mL
[41]
  IC80 neutralization: 15.1 µg/mL
[42]
  IC80 neutralization: 3.17 µg/mL
[43]
  neutralization IC50: 5.48 µg/mL
[44]
  neutralization IC50: 0.133 µg/mL
[45]
  IC80 neutralization: 16.6 µg/mL
